From the supplement of paper PMC3353916
± gives the standard deviation of the averaged measurements.

Tested on: Sindbis virus TE/5'2J-GFP
Assay: percent infected (GFP+ in RFP+ ISG-expressing cells); higher = more infection (less antiviral activity)
Description: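 Confirmatory testing of 87 ISGs. Triplicate wells of BHK/HA-Zeo (control) or BHK/NZAP-Zeo (ZAP) cells were transduced with lentiviruses co-expressing a human ISG plus TagRFP, then infected 48 h later with SINV TE/5'2J-GFP (moi 5). The % GFP+ cells among RFP+ cells was measured by flow cytometry at 8 h post infection. Fluc lentivirus served as control. Three independent experiments.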

[1] = experiment: confirmatory screen 1, BHK/HA-Zeo (control)
[2] = experiment: confirmatory screen 1, BHK/NZAP-Zeo (ZAP)
[3] = experiment: confirmatory screen 2, BHK/HA-Zeo (control)
[4] = experiment: confirmatory screen 2, BHK/NZAP-Zeo (ZAP)
[5] = experiment: confirmatory screen 3, BHK/HA-Zeo (control)
[6] = experiment: confirmatory screen 3, BHK/NZAP-Zeo (ZAP)
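Further: Interferon-defective BHK-21 derivatives, ZAP line overexpressing the rat ZAP N-terminal zinc finger domain fused to Zeocin resistance, GFP scored within live singlet TagRFP+ cells.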

Sequence	percent infected [1] [%]	percent infected [2] [%]	percent infected [3] [%]	percent infected [4] [%]	percent infected [5] [%]	percent infected [6] [%]
MEKLLCFLVLTSLSHAFGQTDMSRKAFVFPKESDTSYVSLKAPLTKPLKAFTVCLHFYTELSSTRGYSIFSYATKRQDNEILIFWSKDIGYSFTVGGSEILFEVPEVTVAPVHICTSWESASGIVEFWVDGKPRVRKSLKKGYTVGAEASIILGQEQDSFGGNFEGSQSLVGDIGNVNMWDFVLSPDEINTIYLGGPFSPNVLNWRALKYEVQGEVFTKPQLWP [CRP]	94.7 ± 1.9	71.6 ± 4	95.07 ± 0.27	94.33 ± 0.72	89.4 ± 1.5	92.68 ± 0.15
MELRSYQWEVIMPALEGKNIIIWLPTGAGKTRAAAYVAKRHLETVDGAKVVVLVNRVHLVTQHGEEFRRMLDGRWTVTTLSGDMGPRAGFGHLARCHDLLICTAELLQMALTSPEEEEHVELTVFSLIVVDECHHTHKDTVYNVIMSQYLELKLQRAQPLPQVLGLTASPGTGGASKLDGAINHVLQLCANLDTWCIMSPQNCCPQLQEHSQQPCKQYNLCHRRSQDPFGDLLKKLMDQIHDHLEMPELSRKFGTQMYEQQVVKLSEAAALAGLQEQRVYALHLRRYNDALLIHDTVRAVDALAALQDFYHREHVTKTQILCAERRLLALFDDRKNELAHLATHGPENPKLEMLEKILQRQFSSSNSPRGIIFTRTRQSAHSLLLWLQQQQGLQTVDIRAQLLIGAGNSSQSTHMTQRDQQEVIQKFQDGTLNLLVATSVAEEGLDIPHCNVVVRYGLLTNEISMVQARGRARADQSVYAFVATEGSRELKRELINEALETLMEQAVAAVQKMDQAEYQAKIRDLQQAALTKRAAQAAQRENQRQQFPVEHVQLLCINCMVAVGHGSDLRKVEGTHHVNVNPNFSNYYNVSRDPVVINKVFKDWKPGGVISCRNCGEVWGLQMIYKSVKLPVLKVRSMLLETPQGRIQAKKWSRVPFSVPDFDFLQHCAENLSDLSLD [DHX58]	95 ± 1.5	75.7 ± 2.1	95.81 ± 0.69	95.7 ± 0.2	94.51 ± 0.49	94.61 ± 0.18
MEQHFLGCVKRAWDSAEVAPEPQPPPIVSSEDRGPWPLPLYPVLGEYSLDSCDLGLLSSPCWRLPGVYWQNGLSPGVQSTLEPSTAKPTEFSWPGTQKQQEAPVEEVGQAEEPDRLRLQQLPWSSPLHPWDRQQDTEVCDSGCLLERRHPPALQPWRHLPGFSDCLEWILRVGFAAFSVLWACCSRICGAKQP [C5orf39]	76.7 ± 4.1	9.13 ± 2.2	93.67 ± 0.59	89.88 ± 0.14	75.4 ± 1.5	50.1 ± 3
MERISAFFSSIWDTILTKHQEGIYNTICLGVLLGLPLLVIITLLFICCHCCWSPPGKRGQQPEKNKKKKKKKKKKDEEDLWISAQPKLLQMEKRPSLPV [KIAA0040]	93.9 ± 2.6	62.7 ± 0.84	96.75 ± 0.12	95.133 ± 0.042	87.2 ± 1.7	87.8 ± 1.6
MEVTTRLTWNDENHLRKLLGNVSLSLLYKSSVHGGSIEDMVERCSRQGCTITMAYIDYNMIVAFMLGNYINLHESSTEPNDSLWFSLQKKNDTTEIETLLLNTAPKIIDEQLVCRLSKTDIFIICRDNKIYLDKMITRNLKLRFYGHRQYLECEVFRVEGIKDNLDDIKRIIKAREHRNRLLADIRDYRPYADLVSEIRILLVGPVGSGKSSFFNSVKSIFHGHVTGQAVVGSDITSITERYRIYSVKDGKNGKSLPFMLCDTMGLDGAEGAGLCMDDIPHILKGCMPDRYQFNSRKPITPEHSTFITSPSLKDRIHCVAYVLDINSIDNLYSKMLAKVKQVHKEVLNCGIAYVALLTKVDDCSEVLQDNFLNMSRSMTSQSRVMNVHKMLGIPISNILMVGNYASDLELDPMKDILILSALRQMLRAADDFLEDLPLEETGAIERALQPCI [IFI44L]	94.86 ± 0.39	67.5 ± 2.4	96.87 ± 0.21	94.83 ± 0.34	83.6 ± 1.6	85.31 ± 0.85
MFAKGKGSAVPSDGQAREKLALYVYEYLLHVGAQKSAQTFLSEIRWEKNITLGEPPGFLHSWWCVFWDLYCAAPERRDTCEHSSEAKAFHDYSAAAAPSPVLGNIPPNDGMPGGPIPPGFFQGPPGSQPSPHAQPPPHNPSSMMGPHSQPFMSPRYAGGPRPPIRMGNQPPGGVPGTQPLLPNSMDPTRQQGHPNMGGSMQRMNPPRGMGPMGPGPQNYGSGMRPPPNSLGPAMPGINMGPGAGRPWPNPNSANSIPYSSSSPGTYVGPPGGGGPPGTPIMPSPADSTNSSDNIYTMINPVPPGGSRSNFPMGPGSDGPMGGMGGMEPHHMNGSLGSGDIDGLPKNSPNNISGISNPPGTPRDDGELGGNFLHSFQNDNYSPSMTMSV [SSBP3]	63.1 ± 3.4	3.95 ± 1.2	94.42 ± 0.81	95.08 ± 0.28	83.27 ± 0.48	54.1 ± 14
MGAQLCFEANAKAPREALRFHAEAKGAQVRLDTRGCIAHRRTTFHDGIVFSQRPVRLGERVALRVLREESGWCGGLRVGFTRLDPACVSVPSLPPFLCPDLEEQSPTWAAVLPEGCALTGDLVRFWVDRRGCLFAKVNAGCRLLLREGVPVGAPLWAVMDVYGTTKAIELLDPTASRLPTPMPWDLSNKAVPEPKATPGEECAICFYHAANTRLVPCGHTYFCRYCAWRVFSDTAKCPVCRWQIEAVAPAQGPPALRVEEGS [LINCR]	97.12 ± 0.12	85 ± 1.6	94.5 ± 0.3	94.39 ± 0.54	91.97 ± 0.65	93.27 ± 0.19
MGERTLHAAVPTPGYPESESIMMAPICLVENQEEQLTVNSKALEILDKISQPVVVVAIVGLYRTGKSYLMNRLAGKRNGFPLGSTVQSETKGIWMWCVPHLSKPNHTLVLLDTEGLGDVEKSNPKNDSWIFALAVLLSSSFVYNSVSTINHQALEQLHYVTELAELIRAKSCPRPDEAEDSSEFASFFPDFIWTVRDFTLELKLDGNPITEDEYLENALKLIPGKNPKIQNSNMPRECIRHFFRKRKCFVFDRPTNDKQYLNHMDEVPEENLERHFLMQSDNFCSYIFTHAKTKTLREGIIVTGKRLGTLVVTYVDAINSGAVPCLENAVTALAQLENPAAVQRAADHYSQQMAQQLRLPTDTLQELLDVHAACEREAIAVFMEHSFKDENHEFQKKLVDTIEKKKGDFVLQNEEASAKYCQAELKRLSEHLTESILRGIFSVPGGHNLYLEEKKQVEWDYKLVPRKGVKANEVLQNFLQSQVVVEESILQSDKALTAGEKAIAAERAMKEAAEKEQELLREKQKEQQQMMEAQERSFQEYMAQMEKKLEEERENLLREHERLLKHKLKVQEEMLKEEFQKKSEQLNKEINQLKEKIESTKNEQLRLLKILDMASNIMIVTLPGASKLLGVGTKYLGSRI [GBP4]	95 ± 2.1	63 ± 6	95.8 ± 0.54	95.49 ± 0.44	94.22 ± 0.7	94.93 ± 0.31
MGILYSEPICQAAYQNDFGQVWRWVKEDSSYANVQDGFNGDTPLICACRRGHVRIVSFLLRRNANVNLKNQKERTCLHYAVKKKFTFIDYLLIILLMPVLLIGYFLMVSKTKQNEALVRMLLDAGVEVNATDCYGCTALHYACEMKNQSLIPLLLEARADPTIKNKHGESSLDIARRLKFSQIELMLRKAL [ANKRD22]	96.94 ± 0.72	78.5 ± 1.2	96.41 ± 0.47	95.57 ± 0.16	93.15 ± 0.2	93.16 ± 0.36
MHLCGGNGLLTQTDPKEQQRQLKKQKNRAAAQRSRQKHTDKADALHQQHESLEKDNLALRKEIQSLQAELAWWSRTLHVHERLCPMDCASCSAPGLLGCWDQAEGLLGPGPQGQHGCREQLELFQTPGSCYPAQPLSPGPQPHDSPSLLQCPLPSLSLGPAVVAEPPVQLSPSPLLFASHTGSSLQGSSSKLSALQPSLTAQTAPPQPLELEHPTRGKLGSSPDNPSSALGLARLQSREHKPALSAATWQGLVVDPSPHPLLAFPLLSSAQVHF [BATF2]	90.1 ± 2.7	63.14 ± 0.42	95.85 ± 0.33	94.92 ± 0.24	93.14 ± 0.36	91.04 ± 0.55
